Results on 13 molecules are retold here after US20200347130A1 (JIANGSU HENGRUI MEDICINE, published 2020).

Where a chain is given by its changes, count along the chain named.

The chains are these.
T1: CD96 extracellular region with His tag (CD96-His) (human, UniProt P40200 22-519)
T1 construct: also called CD96-ECD-His; Bio-CD96-His (biotin-labelled form)
T1 sequence: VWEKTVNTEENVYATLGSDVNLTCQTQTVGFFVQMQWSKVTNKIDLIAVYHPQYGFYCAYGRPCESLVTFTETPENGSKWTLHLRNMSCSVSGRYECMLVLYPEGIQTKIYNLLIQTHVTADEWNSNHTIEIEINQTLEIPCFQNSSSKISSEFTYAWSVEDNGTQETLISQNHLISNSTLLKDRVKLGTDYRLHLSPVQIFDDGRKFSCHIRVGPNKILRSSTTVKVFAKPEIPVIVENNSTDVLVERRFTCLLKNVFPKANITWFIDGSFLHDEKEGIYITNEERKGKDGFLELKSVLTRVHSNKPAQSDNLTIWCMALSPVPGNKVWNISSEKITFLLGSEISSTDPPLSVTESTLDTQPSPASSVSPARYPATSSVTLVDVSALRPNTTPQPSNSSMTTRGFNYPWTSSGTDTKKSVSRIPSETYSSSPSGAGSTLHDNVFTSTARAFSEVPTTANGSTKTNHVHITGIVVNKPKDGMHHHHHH

T2: Monkey CD96-3xFlag (cyno-CD96-3xFLAG) (cynomolgus monkey)
T2 construct: Signal peptide marked only by lost underlining; also called cynomolgus CD96
T2 chain: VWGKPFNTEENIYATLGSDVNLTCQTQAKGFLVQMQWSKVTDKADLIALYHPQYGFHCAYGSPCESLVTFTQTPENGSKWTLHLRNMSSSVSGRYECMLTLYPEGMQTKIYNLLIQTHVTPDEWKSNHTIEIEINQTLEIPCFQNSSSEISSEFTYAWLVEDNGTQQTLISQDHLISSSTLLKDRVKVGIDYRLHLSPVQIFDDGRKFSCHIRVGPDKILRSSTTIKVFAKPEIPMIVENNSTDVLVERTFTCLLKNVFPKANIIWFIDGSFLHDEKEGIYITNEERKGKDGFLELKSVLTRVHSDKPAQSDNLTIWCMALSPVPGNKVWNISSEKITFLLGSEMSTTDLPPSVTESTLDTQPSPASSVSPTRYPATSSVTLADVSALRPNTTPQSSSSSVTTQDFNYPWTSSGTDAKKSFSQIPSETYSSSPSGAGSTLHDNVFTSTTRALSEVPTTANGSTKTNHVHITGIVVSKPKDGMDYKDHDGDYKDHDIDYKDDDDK

B1: h1721-003 (antibody, V domains shown)
VH: EVTLKESGPVLVKPTETLTLTCTVSGFSLSSYGVNWIRQPPGKALEWLGVIWGDGSTNYHSALISRLTISKDTSKSQVVLTLTNMDPVDTATYYCAKNYFYGSRYGYAMDSWGQGTTVTVSS
VL: DIQMTQSPSSLSASVGDRVTITCRASENIYSSLAWYQQKPGKAPKLLIYNAKTLIEGVPSRFSGSGSGTDFTLTISSLQPEDFATYYCQHHYGTPYTFGGGTKVEIK
notes: Only variable regions are tied to this name; also called M721-003
B2: h1719-006 (antibody, V domains shown)
VH: B1 VH with N35S, I37V, A44G, S56N, A62V, Y99N, F100Y, A108P, S111Y
VL: DIQMTQSPSSVSASVGDRVTITCKATQDVGTAVAWYQQKPGKSPKLLIYWASTRHTGVPERFSGSGSGTDFTLTISSLQPEDFATYFCQQYGSSVLTFGGGTKVEIK
notes: also called M719-006
B3: h1719-014 (antibody, V domains shown)
VH: B1 VH with N35S, I37V, A44G, S56N, A62V, F100Y, A108P, M109L, S111Y
VL: B2 VL
notes: Only variable regions are tied to this name; also called M719-014
B4: h1722-010 (antibody, V domains shown)
VH: EVQLVQSGAEVKKPGSSVKVSCKASGGTFSDYWMHWVRQAPGQGLEWIGMLHPNSGTTSFNEKFKIRVTITADKSTSTAYMELSSLRSEDTAVYYCASDYSGPFAYWGQGTLVTVSS
VL: DIQLTQSPSSLSASVGDRVTITCSASSSVNYIHWYQQKPGKAPKRWIFDTSKLASGVPSRFSGSGSGTDYTLTISSLQPEDFATYYCQQWRSNPLTFGQGTKLEIK
notes: Only variable regions are tied to this name; also called M722-010
B5: h1722-006 (antibody, V domains shown)
VH: B4 VH
VL: B4 VL with L4M, F48Y, Y70F
notes: Only variable regions are tied to this name
B6: h1722-017 (antibody, V domains shown)
VH: B4 VH with N54K
VL: B4 VL
B7: h1722-018 (antibody, V domains shown)
VH: B4 VH with N54Q
VL: B4 VL
B8: h1718-012 (antibody, V domains shown)
VH: EVQLVQSGAEVKKPGASVKVSCKASGYTITDYNMNWVRQAPGQRLEWIGVINPSYGITDYNQNFKDRVTITVDTSASTAYMELSSLRSEDTAVYYCAIQLRLPGYFDVWGQGTTVTVSS
VL: DIQMTQSPSSLSASVGDRVTITCKASQDINQYLNWFQQKPGKAPKTLIYRANRLVDGVPSRFSGSGSGQDYTLTISSLQPEDFATYYCLKYDEFPYTFGGGTKVEIK
notes: as for B5
B9: ch1720 (antibody, human IgG4 S228P, kappa, V domains shown)
VH: EFQLQQSGPELVKPGASVKISCKASAYSLTDYNMNWVKQSNGKSLEWIGVINPSYGISSYNQKFKGKATLTVDQSSSTAYMHLNSLTSEDSAVYYCARQLRLPGYFDVWGTGTTVTVSS
VL: DIKMTQSPSSKNASLGERVTITCKASQDINSYLNWFQQKPGKSPKTLIYRASRLVDGVPSRFSGSGSGQDYSLTISSLEYEDMGIYYCLKYDEFPYTFGGGTKLEIKR
notes: also called chimeric antibody corresponding to m1720
B10: ch1718 (antibody, human IgG4 S228P, kappa, V domains shown)
VH: B9 VH with L29I, S58T, S59D, K63N, G66D, H82Q, R98I, T116I
VL: B9 VL with K11M, N12Y, S31N, S52N, L104V
notes: also called chimeric antibody corresponding to m1718
B11: ch1719 (antibody, human IgG4 S228P, kappa, V domains shown)
VH: QVQLKESGPGLVAPSQSLSITCTVSGFSLISYGVSWVRQPPGKGLEWLGVIWGDGNTNYHSVLISRLSIRKDDSKSQVFLKLNSLQTDDTATYYCAKNNYYGSRYGYPMDYWGQGTSVTVSS
VL: DIVMTQSHKFMSTSVGDRVSITCKATQDVGTAVAWYQQKPGHSPKLLIYWASTRHTGVPERFTGSGSGTDFTLTIDNVQSEDLADYFCQQYGSSVLTFGAGTKVELRR
notes: also called chimeric antibody corresponding to m1719
B12: ch1721 (antibody, human IgG4 S228P, kappa, V domains shown)
VH: B11 VH with S35N, N56S, V62A, R70S, K81N, N99Y, Y100F, P108A, Y111S, T116I
VL: DIQMTQSPASLSAAVGETVTITCRASENIYSSLAWYQQKQGKSPQLLVYNAKTLIETVASRFSGSGSGTQYSLKINSLQPEDFGSFYCQHHYGTPYTFGGGTKLEIKR
notes: also called chimeric antibody corresponding to m1721
B13: ch1722 (antibody, human IgG4 S228P, kappa, V domains shown)
VH: QVQLQQPGAELVKPGTSVKLSCKASGNTFIDYWMHWVKQRPGQGLEWIGMLHPNSGTTSFNEKFKIKTTLTIDKSSSTAYMQLSSLTSEDSAIYYCASDYSGPFAYWGQGTLVTVSA
VL: QIVLTQSPGIMSAFPGEKVTMTCSASSSVNYIHWYQQKSGTSPKRWIFDTSKLASGVPARFSGSGSGTSYSLTISSMEAEDAATYYCQQWRSNPLTFGAGTKLELKR
notes: also called chi722; chimeric antibody corresponding to m1722

The target in one test is T1, CD96 extracellular region with His tag …. Kind of test: blocking cell ELISA: antibody premixed with Bio-CD96-His (0.5 ug/mL), binding to fixed CD155-CHO cells. As to the method:
CD155-CHO cells (constructed by Shanghai Hengrui) were seeded in 96-well culture plates at a density of 9×10⁴/100 μL/well and cultured overnight. After aspirating the supernatant, the plate was washed once with PBS, 100 μl/well of immunostaining fixation solution (Biyuntian, Cat No. P0098) was added and fixed for one hour at room temperature, and the plate was washed three times with PBS. After discarding the liquid, 250 μl/well of 5% skim milk (BD, Cat No. 232100) blocking solution diluted with PBS was added, and the plate was blocked in an incubator at 37° C. for 2.5 hours. After blocking, the blocking solution was discarded, subsequently, the plate was washed 4 times with PBST buffer (pH 7.4 PBS containing 0.05% tween-20). 50 μl/well of antigen-antibody pre-incubation solution (gradient concentrations of the hybridoma antibody to be tested and CD96-Fc at a final concentration of 0.5 μg/mL were premixed at 37° C. for 30 minutes, or gradient concentrations of humanized antibody samples and Bio-CD96-His at a final concentration of 0.5 μg/mL were premixed at 37° C. for 30 minutes) (Biotin-labeled kit, Dongren Chemical, Cat No. LK03) was added, and the plate was incubated in an incubator at 37° C. for 2 hours. After incubation, the reaction solution in the microtiter plate was discarded, the plate was washed 4 times with PBST, and 50 μl/well of HRP-labeled goat anti-human secondary antibody (Jackson Immuno Research, Cat No. 109-035-003) diluted with sample dilution or HRP-labeled streptavidin diluted with sample dilution (Sigma, Cat No. 52438) was added, followed by incubating at 37° C. for 1 hour. After washing the plate 4 times with PBST, 50 μl/well of TMB chromogenic substrate (KPL, Cat No. 52-00-03) was added, the plate was incubated at room temperature for 10-20 minutes, followed by adding 50 μl/well of 1M H₂SO₄ to stop the reaction. The absorption value was read at 450 nm with a NOVOStar microplate reader, and the EC50 value of the effect of CD96 antibody on blocking the binding between the antigens and CD155-CHO cells was calculated (see FIG. 2 and Table 16).
The molecule B1 returned a half-maximal inhibitory concentration (IC50) of 0.155 nM. As for B2, the half-inhibitory concentration (IC50) was found to be 0.064 nM. For the molecule B3, the IC50 was determined as 0.046 nM. Molecule B4 had an IC50 of 0.207 nM. In turn, B5 showed an IC50 of 0.398 nM. B6: the IC50 is 0.135 nM.

Take B7: the IC50 stood at 0.134 nM.

In turn, B8 came in with an IC50 of 0.133 nM.

The target in another test is T2, Monkey CD96-3xFlag (cyno-CD96-3xFLAG). Nature of the test: ELISA, cyno-CD96-3xFLAG coated. Here is the method:
The cross-reactive binding capacity of the anti-CD96 antibody to monkey CD96 was tested by ELISA to determine the binding of the antibody to cynomolgus CD96 protein. The 3×FLAG-tagged CD96 fusion protein was used to coat the microtiter plate, and the intensity of the signal after adding with the antibody was used for evaluating the binding activity of the antibody and cynomolgus CD96. The specific experimental method is as follows:
cyno-CD96-3×FLAG with the amino acid sequence of SEQ ID NO: 95 prepared in Embodiment 4 was diluted to a concentration of 2 μg/ml with PBS buffer (Shanghai Yuanpei Biotechnology Co., Ltd. Cat No. B320), pH 7.4, added to a 96-well microtiter plate (Corning, Cat No. CLS3590-100EA) at a volume of 50 μl/well, and placed in an incubator at 37° C. for 2 hours. After discarding the liquid, 250 μl/well of 5% skim milk (BD, 232100) blocking solution diluted with PBS was added, and the plate was incubated in an incubator at 37° C. for 2.5 hours or at 4° C. overnight (16-18 hours) for blocking. After blocking, the blocking solution was discarded, and the plate was washed 4 times with PBST buffer (pH 7.4 PBS containing 0.05% tween-20). 50 μl/well of different concentrations of the antibodies to be tested (hybridoma purification antibody or humanized antibody) diluted with sample dilution was added, and the plate was incubated in an incubator at 37° C. for 1 hour. […] After washing the plate 4 times with PBST, 50 μl/well of TMB chromogenic substrate (KPL, Cat No. 52-00-03) was added, and the plate was incubated at room temperature for 5-15 minutes, followed by adding 50 μl/well of 1M H₂SO₄ to stop the reaction. The absorption value was read at 450 nm with a NOVOStar microplate reader, and the EC50 value of the binding of CD96 antibody to monkey CD96 was calculated (see Table 14).
Molecule B9 yielded an EC50 of 0.096 nM. As to B10, the EC50 is 0.068 nM. Still for that read-out and setting: to B11 belongs 0.047 nM; to B12, 0.046 nM. On the same count and under the same terms, to B13 belongs 0.05 nM. On the same count and under the same terms, for B1 the value was 0.037 nM; for B3, 0.065 nM; for B4, 0.047 nM. For B6, the EC50 is 0.047 nM. On to B7, for which the EC50 was 0.051 nM. Consider B8, for which the response was half-maximal at 0.075 nM (EC50).
